Data published in US20240287481A1, “POLYMERASES FOR EFFICIENT INCORPORATION OF NUCLEOTIDES WITH 3'-PHOSPHATE AND OTHER 3'-TERMINATORS” (MGI Tech Co., Ltd., priority 2021, published 2024).

Assays:
[1] = tested on: 3′-phosphate / 2′-phosphate nucleotides; settings: cited from earlier work
[2] = tested on: 3′ phosphate-extended primer; assay: 3′ phosphate primer detection with antibodies in a microtiter plate (fluorescence); format: binding; settings: for ratio to no primer: intensity primer / no primer; for fluorescence intensity: 5 min binding, wash at 60° C.
Method: 3′ phosphate blocked nucleotides were incorporated onto the terminal position of a primer and then reacted with unlabeled or labeled antibodies. After a short reaction time of less than 5 minutes, excess antibodies were washed from the reaction well and bound antibodies detected. In the case of unlabeled antibodies, a secondary fluorescently labeled antibody or nanobody was used to bind to the primary IgG before fluorescence detection. In the case of directly labeled primary antibodies, excess un-bound antibodies were washed away and fluorescence in the reaction well measured with a fluorescence plate reader.
Under some binding and wash conditions some non-specific binding of antibody was occurring on the target. […] The interaction of magnesium with the phosphates of the DNA phosphodiester bonds may be suppressing the ability of the antibodies to react with internal phosphates but still allowing recognition of the terminal phosphate. Specific binding in the presence of magnesium was 10-27 fold higher than without primer.

[3] = no primer (non-specific binding), 20 mM Mg buffer
[4] = no primer (non-specific binding), magnesium free buffer
[5] = primer extended with 3′ phosphate nucleotide, 20 mM Mg buffer
[6] = primer extended with 3′ phosphate nucleotide, magnesium free buffer

B1: Taq 475: Taq polymerase variant E520G, K540I, L616A (protein, UniProt P19821 1-832, looked up, variant E520G K540I L616A)
DNA polymerase I, thermostable: MRGMLPLFEPKGRVLLVDGHHLAYRTFHALKGLTTSRGEPVQAVYGFAKSLLKALKEDGDAVIVVFDAKAPSFRHEAYGGYKAGRAPTPEDFPRQLALIKELVDLLGLARLEVPGYEADDVLASLAKKAEKEGYEVRILTADKDLYQLLSDRIHVLHPEGYLITPAWLWEKYGLRPDQWADYRALTGDESDNLPGVKGIGEKTARKLLEEWGSLEALLKNLDRLKPAIREKILAHMDDLKLSWDLAKVRTDLPLEVDFAKRREPDRERLRAFLERLEFGSLLHEFGLLESPKALEEAPWPPPEGAFVGFVLSRKEPMWADLLALAAARGGRVHRAPEPYKALRDLKEARGLLAKDLSVLALREGLGLPPGDDPMLLAYLLDPSNTTPEGVARRYGGEWTEEAGERAALSERLFANLWGRLEGEERLLWLYREVERPLSAVLAHMEATGVRLDVAYLRALSLEVAEEIARLEAEVFRLAGHPFNLNSRDQLERVLFDELGLPAIGKTEKTGKRSTSAAVLGALREAHPIVEKILQYRELTILKSTYIDPLPDLIHPRTGRLHTRFNQTATATGRLSSSDPNLQNIPVRTPLGQRIRRAFIAEEGWLLVALDYSQIEARVLAHLSGDENLIRVFQEGRDIHTETASWMFGVPREAVDPLMRRAAKTINFGVLYGMSAHRLSQELAIPYEEAQAFIERYFQSFPKVRAWIEKTLEEGRRRGYVETLFGRRRYVPDLEARVKSVREAAERMAFNMPVQGTAADLMKLAMVKLFPRLEEMGARMLLQVHDELVLEAPKERAEAVARLAKEVMEGVYPLAVPLEVEVGIGEDWLSAKE
incorporation of 3′-phosphate nucleotides, in words [1]: does not incorporate 3′-phosphate nucleotides

B2: 12D6: rabbit monoclonal dTTP-3P antibody, SEQ ID NO: 51 and 52 (protein)
chain 1: METGLRWLLLVAVLKGVQCQSLEESGGRLVTPGTPLTLTCTVSGIDLSSYTITWVRQAPGKGLEWIGYIYVHDGATYYANWAKGRFTISRTSSTTVDLKMTSLTTEDTATYFCASGGGTTYYRIWGPGTLVTVSSGQPKAPSVFPLAPCCGDTPSSTVTLGCLVKGYLPEPVTVTWNSGTLTNGVRTFPSVRQSSGLYSLSSVVSVTSSSQPVTCNVAHPATNTKVDKTVAPSTCSKPMCPPPELPGGPSVFIFPPKPKDTLMISRTPEVTCVVVDVSQDDPEVQFTWYINNEQVRTARPPLREQQFNSTIRVVSTLPIAHQDWLRGKEFKCKVHNKALPAPIEKTISKARGQPLEPKVYTMGPPREELSSRSVSLTCMINGFYPSDISVEWEKNGKAEDNYKTTPTVLDSDGSYFLYSKLSVPTSEWQRGDVFTCSVMHEALHNHYTQKSISRSPGK
chain 2: MDTRAPTQLLGLLLLWLPGATFAQLLTQTPPSVSAPVGGTVTINCQSSQSVYGHNRLSWYQQKPGQPPKLLIYYTSTLASGVPSRFKGSGSGTQFTLTISDLECDDAATYYCAGGYNGNIYAFGGGTEVVVKGDPVAPTVLIFPPAADQVATGTVTIVCVANKYFPDVTVTWEVDGTTQTTGIENSKTPQNSADCTYNLSSTLTLTSTQYNSHKEYTCKVTQGTTSVVQSFNRGDC
modifications: dTTP-3P
ratio to no primer ([2]; 20 mM Mg buffer): 20.6
ratio to no primer ([2]; magnesium free buffer): 1.7
fluorescence intensity [2, 3]: 13278
fluorescence intensity [2, 4]: 206733
fluorescence intensity [2, 5]: 273502
fluorescence intensity [2, 6]: 345210

B3: 18B10: rabbit monoclonal dATP-3P antibody, SEQ ID NO: 39 and 40 (protein)
chain 1: METGLRWLLLVAVLKGVQCQSVEESGGRLVTPGTPLTLTCTVSGIDLSSYAMGWVRQAPGKGLEWIGMISRRGTSYYASWARGRFTISKTSTTVDLKITSPTTEETATYFCARATYDDYTDLNLWGQGTLVTVSSGQPKAPSVFPLAPCCGDTPSSTVTLGCLVKGYLPEPVTVTWNSGTLTNGVRTFPSVRQSSGLYSLSSVVSVTSSSQPVTCNVAHPATNTKVDKTVAPSTCSKPMCPPPELPGGPSVFIFPPKPKDTLMISRTPEVTCVVVDVSQDDPEVQFTWYINNEQVRTARPPLREQQFNSTIRVVSTLPIAHQDWLRGKEFKCKVHNKALPAPIEKTISKARGQPLEPKVYTMGPPREELSSRSVSLTCMINGFYPSDISVEWEKNGKAEDNYKTTPTVLDSDGSYFLYSKLSVPTSEWQRGDVFTCSVMHEALHNHYTQKSISRSPGK
chain 2: MDTRAPTQLLGLLLLWLPGATFAQVLTQTPSSVSAAVGGTVTINCQSSQSVYNNNLLSWYQQKPGQPPKLLIYKTSSLASGVPSRFSGSGSGTQFTLTISGVQCDDAATYYCLGGYYSGSGWYSTFGGGTEVVVKGDPVAPTVLIFPPSADLVATGTVTIVCVANKYFPDVTVTWEVDGTTQTTGIENSKTPQNSADCTYNLSSTLTLTSTQYNSHKEYTCKVTQGTTSVVQSFNRGDC
modifications: dATP-3P
ratio to no primer ([2]; 20 mM Mg buffer): 27.1
ratio to no primer ([2]; magnesium free buffer): 3.0
fluorescence intensity [2, 3]: 8820
fluorescence intensity [2, 4]: 88385
fluorescence intensity [2, 5]: 238771
fluorescence intensity [2, 6]: 265039

B4: 2F7: rabbit monoclonal dCTP-3P antibody, SEQ ID NO: 43 and 44 (protein)
chain 1: METGLRWLLLVAVLKGVQCQSVEESGGRLVTPGTPLTLTCTVSGFSLSNYAIIWVRQAPGEGLEYIGFISRTGSINYANWAKGRFTISKTSTTVDLKITSPTTEDTATYFCARTDYFANGDIWGPGTLVTVSSGQPKAPSVFPLAPCCGDTPSSTVTLGCLVKGYLPEPVTVTWNSGTLTNGVRTFPSVRQSSGLYSLSSVVSVTSSSQPVTCNVAHPATNTKVDKTVAPSTCSKPMCPPPELPGGPSVFIFPPKPKDTLMISRTPEVTCVVVDVSQDDPEVQFTWYINNEQVRTARPPLREQQFNSTIRVVSTLPIAHQDWLRGKEFKCKVHNKALPAPIEKTISKARGQPLEPKVYTMGPPREELSSRSVSLTCMINGFYPSDISVEWEKNGKAEDNYKTTPTVLDSDGSYFLYSKLSVPTSEWQRGDVFTCSVMHEALHNHYTQKSISRSPGK
chain 2: MDTRVPTQLLGLLLLWLPGARCADVVMTQTPASVSEPVGGTVTIKCQASQSINSWLSWYQQKPGQPPKLLIYAASTLASGVPSRFKGSGSGTQFTLTISDLECADAATYFCQSYDMIVNHGAPFGGGTGVVVSGDPVAPTVLIFPPAADQVATGTVTIVCVANKYFPDVTVTWEVDGTTQTTGIENSKTPQNSADCTYNLSSTLTLTSTQYNSHKEYTCKVTQGTTSVVQSFNRGDC
modifications: dCTP-3P
ratio to no primer ([2]; 20 mM Mg buffer): 16.2
ratio to no primer ([2]; magnesium free buffer): 8.8
fluorescence intensity [2, 3]: 11357
fluorescence intensity [2, 4]: 19124
fluorescence intensity [2, 5]: 183669
fluorescence intensity [2, 6]: 167623
